One block for each binder: values may come before it.
Tests used:
[1] = target: T1, NTB-A (NK-T-B-antigen) (human, UniProt Q96DU3 22-332); assay: NTB-A immunoprecipitates from 1% digitonin NK cell lysates probed by western blot
T1 construct: Full-length surface glycoprotein; Native cells may also carry the allelic isoform with an extra Ala at position 266; also called KALI cDNA product; MA127-reactive molecule
T1 sequence: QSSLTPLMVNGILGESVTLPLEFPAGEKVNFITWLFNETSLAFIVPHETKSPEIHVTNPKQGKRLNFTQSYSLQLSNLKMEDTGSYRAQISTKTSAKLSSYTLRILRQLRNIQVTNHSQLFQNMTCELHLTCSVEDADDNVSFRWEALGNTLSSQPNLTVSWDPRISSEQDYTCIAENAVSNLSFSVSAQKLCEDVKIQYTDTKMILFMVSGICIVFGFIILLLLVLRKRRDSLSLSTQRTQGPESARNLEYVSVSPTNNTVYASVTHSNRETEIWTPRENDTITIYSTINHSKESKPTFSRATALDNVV
Description: (§1) NK cells (10⁸) were stimulated or not with 100 M sodium pervanadate (28). 1% NP-40 or 1% digitonin cell lysates were immunoprecipitated with Sepharose-PA (Amersham Pharmacia Biotech)-coupled mAbs. Samples were analyzed in discontinuous SDS-PAGE, transferred to Immobilon P (Millipore), and probed with: (a) anti-phosphotyrosine mAb (PY20-HRPO; Transduction Laboratories); (b) anti-SHP-2 or anti-SHP-1 mAbs (PTP1D and PTP1C, respectively; Transduction Laboratories) followed by rabbit anti-mouse-HRPO (Dako); (c) anti-SH2D1A rabbit anti-serum (produced by Eurogentec S.A; reference 28) followed by donkey anti-rabbit-HRPO (Amersham Pharmacia Biotech). The Renaissance Chemiluminescence Kit (NEN Life Science Products) was used for detection. Putative NTB-A association with known signal transducing molecules was analyzed by probing NTB-A immunoprecipitates, obtained from 1% digitonin cell lysates, with anti-FcRI (provided by E. Vivier, Marseille, France), anti-DAP12 (SI-28; reference 10), and anti-LAT (UBI; Upstate Biotechnology) antisera or with anti-CD3mAb (TIA/2; Immunotech).

[2] = target: T1, NTB-A (NK-T-B-antigen); assay: NTB-A immunoprecipitates from 1% digitonin NK cell lysates probed with anti-LAT antiserum
Description: as §1

binding result [1]: no binding
B1: FcεRIγ (other, human, UniProt P30273 19-86, looked up)
chain: LGEPQLCYILDAILFLYGIVLTLLYCRLKIQVRKAAITSYEKSDGVYTGLSTRNQETYETLKHEKPPQ

binding result [1]: no binding
B2: KARAP/DAP12 (other, human, UniProt O43914 22-113, looked up)
chain: LRPVQAQAQSDCSCSTVSPGVLAGIVMGDLVLTVLIALAVYFLGRLVPRGRGAAEAATRKQRITETESPYQELQGQRSDVYSDLNTQRPYYK

binding result [2]: no binding
B3: linker for activation of T cells (LAT) (other, human, UniProt O43561 1-262, looked up)
chain: MEEAILVPCVLGLLLLPILAMLMALCVHCHRLPGSYDSTSSDSLYPRGIQFKRPHTVAPWPPAYPPVTSYPPLSQPDLLPIPRSPQPLGGSHRTPSSRRDSDGANSVASYENEGASGIRGAQAGWGVWGPSWTRLTPVSLPPEPACEDADEDEDDYHNPGYLVVLPDSTPATSTAAPSAPALSTPGIRDSAFSMESIDDYVNVPESGESAEASLDGSREYVNVSQELHPGAAKTEPAALSSQEAEEVEEEGAPDYENLQELN
